We go through five molecules from article PMC9288512.

Sequences and labels used below:
B1: VHH-B11 (monovalent camelid nanobody against hPCSK9) FR1:Q1E; FR1:Q5L; FR1:S11L; FR1:A14P; FR1:T23A; FR1:V24A; FR3:V87L; FR3:K95R; FR3:P96A; FR3:M101V (protein)
chain: EVQLLESGGGLVQPGGSLRLSCAASGYTYSSNCMGWFRQAPGKEHEGVASIYIGGGSTYYADSVKGRFTISQDNAKNTLYLQMNSLRAEDTAVYYCAVGCQGLVDFGYWDQGTQVTVSS
B2: VHH-B11 (monovalent camelid nanobody against hPCSK9) FR1:Q1E; FR1:Q5L; FR1:S11L; FR1:A14P; FR1:T23A; FR1:V24A; FR2:A54S; FR3:A83S; FR3:V87L; FR3:K95R; … (protein)
chain: EVQLLESGGGLVQPGGSLRLSCAASGYTYSSNCMGWFRQAPGKEHEGVSSIYIGGGSTYYADSVKGRFTISQDNSKNTLYLQMNSLRAEDTAVYYCAVGCQGLVDFGYWDQGTQVTVSS
B3: VHH-B11 (monovalent camelid nanobody against hPCSK9) FR1:Q1E; FR1:Q5L; FR1:S11L; FR1:A14P; FR1:T23A; FR1:V24A; FR2:A54S; FR3:A83S; FR3:K95R; FR3:P96A; FR3:M101V (protein)
chain: EVQLLESGGGLVQPGGSLRLSCAASGYTYSSNCMGWFRQAPGKEHEGVSSIYIGGGSTYYADSVKGRFTISQDNSKNTVYLQMNSLRAEDTAVYYCAVGCQGLVDFGYWDQGTQVTVSS
B4: VHH-B11 (monovalent camelid nanobody against hPCSK9) FR1:Q1E; FR1:Q5L; FR1:S11L; FR1:A14P; FR1:T23A; FR1:V24A; FR2:A54S; FR3:V87L; FR3:K95R; FR3:P96A; FR3:M101V (protein)
chain: EVQLLESGGGLVQPGGSLRLSCAASGYTYSSNCMGWFRQAPGKEHEGVSSIYIGGGSTYYADSVKGRFTISQDNAKNTLYLQMNSLRAEDTAVYYCAVGCQGLVDFGYWDQGTQVTVSS
B5: VHH-B11 (monovalent camelid nanobody against hPCSK9) FR1:Q1E; FR1:Q5L; FR1:S11L; FR1:A14P; FR2:A54S; FR3:Q80R; FR3:A83S; FR3:V87L; FR3:K95R; FR3:P96A; FR3:M101V (protein)
chain: EVQLLESGGGLVQPGGSLRLSCTVSGYTYSSNCMGWFRQAPGKEHEGVSSIYIGGGSTYYADSVKGRFTISRDNSKNTLYLQMNSLRAEDTAVYYCAVGCQGLVDFGYWDQGTQVTVSS

Bounds are passed on as bounds.

Chain of recombinant human proprotein convertase subtilisin/kexin 9 (hPCSK9), his-tagged, Q8NBP7 (Q8NBP7 153-692): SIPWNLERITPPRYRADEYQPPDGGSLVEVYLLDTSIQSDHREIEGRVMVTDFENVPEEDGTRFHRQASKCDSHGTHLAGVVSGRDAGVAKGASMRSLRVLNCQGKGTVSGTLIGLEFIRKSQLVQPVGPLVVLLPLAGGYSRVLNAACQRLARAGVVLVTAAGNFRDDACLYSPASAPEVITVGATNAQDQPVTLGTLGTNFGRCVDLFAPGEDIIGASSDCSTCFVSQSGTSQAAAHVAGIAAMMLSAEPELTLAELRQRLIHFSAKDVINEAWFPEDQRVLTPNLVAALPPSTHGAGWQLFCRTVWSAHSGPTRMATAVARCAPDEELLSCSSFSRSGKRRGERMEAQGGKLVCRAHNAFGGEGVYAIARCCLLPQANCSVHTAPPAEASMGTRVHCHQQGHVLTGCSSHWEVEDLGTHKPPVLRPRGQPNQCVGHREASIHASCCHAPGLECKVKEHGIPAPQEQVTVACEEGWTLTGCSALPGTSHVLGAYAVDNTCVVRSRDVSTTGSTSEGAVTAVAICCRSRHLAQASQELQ

The assay addresses recombinant human proprotein convertase subtilisin/kexin 9 (hPCSK9), his-tagged, Q8NBP7. Put plainly: SPR. Particulars: chain shown with the change; 25 ℃; parent: ~5.013.
Consider B1, for which the Kd turned out to be 3.22 nM. As to B2, the Kd was over 1000 nM. Next, B3: 11.3 nM; B4: over 1000 nM. Take B5: the Kd turned out to be 7.99 nM.
